Laboratory results as given in IntAct's records for PubMed 18647389.

B1: RalBP1-associated Eps domain-containing protein 2 (Homo sapiens), Q8NFH8 (parent)
chain: MEAAAAAAAAAAAAAAAGGGCGSGPPPLLLSEGEQQCYSELFARCAGAAGGGPGSGPPEAARVAPGTATAAAGPVADLFRASQLPAETLHQITELCGAKRVGYFGPTQFYIALKLIAAAQSGLPVRIESIKCELPLPRFMMSKNDGEIRFGNPAELHGTKVQIPYLTTEKNSFKRMDDEDKQQETQSPTMSPLASPPSSPPHYQRVPLSHGYSKLRSSAEQMHPAPYEARQPLVQPEGSSSGGPGTKPLRHQASLIRSFSVERELQDNSSYPDEPWRITEEQREYYVNQFRSLQPDPSSFISGSVAKNFFTKSKLSIPELSYIWELSDADCDGALTLPEFCAAFHLIVARKNGYPLPEGLPPTLQPEYLQAAFPKPKWDCQLFDSYSESLPANQQPRDLNRMEKTSVKDMADLPVPNQDVTSDDKQALKSTINEALPKDVSEDPATPKDSNSLKARPRSRSYSSTSIEEAMKRGEDPPTPPPRPQKTHSRASSLDLNKVFQPSVPATKSGLLPPPPALPPRPCPSQSEQVSEAELLPQLSRAPSQAAESSPAKKDVLYSQPPSKPIRRKFRPENQATENQEPSTAASGPASAATMKPHPTVQKQSSKQKKAIQTAIRKNKEANAVLARLNSELQQQLKEVHQERIALENQLEQLRPVTVL
B2: RalBP1-associated Eps domain-containing protein 2 (Homo sapiens), Q8NFH8 (parent)
chain: B1 chain
partner: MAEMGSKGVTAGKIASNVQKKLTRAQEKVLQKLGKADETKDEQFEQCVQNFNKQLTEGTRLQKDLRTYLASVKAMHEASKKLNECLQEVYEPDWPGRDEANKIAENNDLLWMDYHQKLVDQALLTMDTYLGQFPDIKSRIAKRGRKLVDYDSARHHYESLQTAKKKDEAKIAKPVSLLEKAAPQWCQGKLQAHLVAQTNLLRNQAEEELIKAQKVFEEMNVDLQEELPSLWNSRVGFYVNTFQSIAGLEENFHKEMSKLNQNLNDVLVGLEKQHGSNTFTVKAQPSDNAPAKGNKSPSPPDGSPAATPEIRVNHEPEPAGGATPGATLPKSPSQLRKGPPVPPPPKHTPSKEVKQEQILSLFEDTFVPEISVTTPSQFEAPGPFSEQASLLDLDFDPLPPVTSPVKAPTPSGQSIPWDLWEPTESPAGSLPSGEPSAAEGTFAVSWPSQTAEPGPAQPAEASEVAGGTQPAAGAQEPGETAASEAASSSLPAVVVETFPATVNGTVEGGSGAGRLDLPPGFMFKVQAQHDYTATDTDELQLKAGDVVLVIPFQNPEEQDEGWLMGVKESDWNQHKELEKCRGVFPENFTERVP

Variants of: B1
Conditions: with grb2_human GRB2, P62993
grb2_human GRB2, P62993, sequence (P62993 whole entry, looked up): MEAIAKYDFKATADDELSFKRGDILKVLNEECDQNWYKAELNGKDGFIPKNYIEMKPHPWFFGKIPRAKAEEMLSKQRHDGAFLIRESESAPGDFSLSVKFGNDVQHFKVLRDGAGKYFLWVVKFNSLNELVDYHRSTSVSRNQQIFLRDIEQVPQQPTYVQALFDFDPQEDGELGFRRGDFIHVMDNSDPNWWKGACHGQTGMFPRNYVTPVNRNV

Variant	effect of a mutation on the interaction
P484A	disrupting interaction

Variants of: B1
Conditions: with grb2_human GRB2, P62993
Remark: another data set of the same source

Variant	effect of a mutation on the interaction
P480A	disrupting interaction

Variants of: B1
Conditions: with grb2_human GRB2, P62993
Remark: another data set of the same source

Variant	effect of a mutation on the interaction
R483A	disrupting interaction

Variants of: B1
Conditions: with 1433z_human YWHAZ

Variant	effect of a mutation on the interaction
S493A	disrupting interaction

Variants of: B2
Conditions: with bin1_human BIN1, O00499

Variant	effect of a mutation on the interaction
R483A	decreasing interaction

Variants of: B2
Conditions: with bin1_human BIN1, O00499
Remark: another data set of the same source

Variant	effect of a mutation on the interaction
R483A	disrupting interaction strength

Variants of: B2
Conditions: with bin1_human BIN1, O00499
Remark: another data set of the same source

Variant	effect of a mutation on the interaction
P447A	disrupting interaction
